Substrate in this data set: c1ccc2c3c([nH]c2c1)CNCC3
The data set can be described thus: steady-state kinetics of chlorination. The format is biochemical, Lentzea aerocolonigenes. As to conditions: cofactor regeneration as in Scheme 2.

Numbering of substitutions follows the chain as printed. Names may count otherwise.

A word on the Km: it is the substrate concentration at which the rate is half of its maximum. As usually defined, the kcat is the number of substrate molecules converted per active site and unit of time at saturation. As a reminder, the kcat/Km is the second-order rate constant that governs catalysis at low substrate concentration.

B1: RebH (Lentzea aerocolonigenes; K145M/M71V/S2P) (protein)
chain: MPGKIDKILIVGGGTAGWMAASYLGKALQGTADITLLQAPDIPTLGVGEATIPNLQTAFFDFLGIPEDEWVRECNASYKVAIKFINWRTAGEGTSEARELDGGPDHFYHSFGLLKYHEQIPLSHYWFDRSYRGKTVEPFDYACYMEPVILDANRSPRRLDGSKVTNYAWHFDAHLVADFLRRFATEKLGVRHVEDRVEHVQRDANGNIESVRTATGRVFDADLFVDCSGFRGLLINKAMEEPFLDMSDHLLNDSAVATQVPHDDDANGVEPFTSAIAMKSGWTWKIPMLGRFGTGYVYSSRFATEDEAVREFCEMWHLDPETQPLNRIRFRVGRNRRAWVGNCVSIGTSSCFVEPLESTGIYFVYAALYQLVKHFPDKSLNPVLTARFNREIETMFDDTRDFIQAHFYFSPRTDTPFWRANKELRLADGMQEKIDMYRAGMAINAPASDDAQLYYGNFEEEFRNFWNNSNYYCVLAGLGLVPDAPSPRLAHMPQATESVDEVFGAVKDRQRNLLETLPSLHEFLRQQHGR
For B1, for the setting “variant 1-PVM, 5 mol% enzyme”, the Km stood at 215 µM, the kcat was found to be 0.000667 s⁻¹ and the kcat/Km is 3.1 M⁻¹ s⁻¹.

B2: RebH (Lentzea aerocolonigenes; K145M/M71V/N467T/S2P) (protein)
chain: B1 chain with N467T
Regarding B2, for the setting “variant 2-T, 3 mol% enzyme”, the Km stood at 236 µM, the kcat was found to be 0.000933 s⁻¹ and the kcat/Km is 3.95 M⁻¹ s⁻¹.
